For 167 variants, self-cleavage results are on record in the RNAGym collection of RNA variant scans (doi:10.7554/elife.80360).

B1: Hammerhead Ribozyme (parent)
chain: ACCGGAUGUGCUUUCCGGUCUGAUGAGUCCGUGAGGACGAAACAG

In the series the parent is B1. The experiment in a line: self-cleavage, relative activity (ratio to wild type); higher = more cleavage; co-transcriptional.
Consider C16A C38G, for which the self-cleavage came to 0.542.
In the case of C15A A26G, the self-cleavage turned out to be 0.248.
Then C15A A26U, with 0.446; and C15A A26C, with 0.437.
C15G G22A: the self-cleavage stood at 0.376.
The same measure for C15G G22C: 0.331; for C15G G22U: 0.352.
Then C16A C30G, with 0.591.
Take C16A C30U: the self-cleavage was found to be 1.32.
Then C16A C30A, with 0.911.
The same measure for C16A G18U: 0.525; for C16A G18A: 0.351; for C16A G18C: 0.341.
On to C15G U28G, for which the self-cleavage was 0.384.
The same measure for C15G U28A: 0.389; for C15G U28C: 0.528.
With C15U C30G, the self-cleavage turned out to be 0.641.
Then C15U C30A, with 0.696; and C15U C30U, with 0.735.
For C15A A44G, the self-cleavage came to 0.897.
In the case of C15A A44U, the self-cleavage is 0.441.
Take C15A A44C: the self-cleavage came to 0.404.
Then C15G A40G, with 0.42; and C15G A40C, with 0.326; and C15G A40U, with 0.358.
The same measure for C15U A26C: 0.424.
Regarding C15U A26G, the self-cleavage came out at 0.313.
Then C15U A26U, with 0.752; and C15G G35U, with 0.455; and C15G G35A, with 0.468.
The same measure for C15G G35C: 0.456.
As to C15G C20A, the self-cleavage came to 0.361.
As for C15G C20G, the self-cleavage came to 0.283.
Take C15G C20U: the self-cleavage is 0.453.
Then C16A, with 1.21.
The same measure for C15G C30G: 0.618; for C15G C30A: 0.653; for C15G C30U: 0.722.
The same measure for C15G A41U: 0.307.
As for C15G A41C, the self-cleavage was 0.398.
Then C15G A41G, with 0.431; and C16A A26G, with 0.37; and C16A A26C, with 0.433.
Then C16A A26U, with 0.59; and C15G A37G, with 0.535.
The same measure for C15G A37U: 0.367; for C15G A37C: 0.364.
In the case of C16A C29A, the self-cleavage was determined as 0.417.
On to C16A C29U, for which the self-cleavage was determined as 1.06.
Then C16A C29G, with 0.566; and C15U G39U, with 0.37.
On to C15U G39A, for which the self-cleavage is 0.347.
The same measure for C15U G39C: 0.407.
Then C15G G36A, with 0.417; and C15G G36C, with 0.284; and C15G G36U, with 0.374.
The same measure for C15A A41C: 0.338; for C15A A41U: 0.287; for C15A A41G: 0.325.
Consider C15U G45A, for which the self-cleavage is 0.842.
Then C15U G45C, with 0.646; and C15U G45U, with 0.822; and C15A U28A, with 0.413.
For the variant C15A U28C, the self-cleavage was 0.425.
Then C15A U28G, with 0.378; and C15A C16U, with 0.647; and C15A C16G, with 0.521.
The same measure for C15A C16A: 0.869; for C15U C43A: 0.413.
Then C15U C43U, with 0.483; and C15U C43G, with 0.305; and C16A G25U, with 0.331.
As to C16A G25C, the self-cleavage turned out to be 0.372.
Then C16A G25A, with 0.347.
Then C15G G33C, with 1.04; and C15G G33U, with 1; and C15G G33A, with 0.9.
C15A G36A: the self-cleavage was determined as 0.407.
C15A G36C: the self-cleavage was 0.379.
Then C15A G36U, with 0.341; and C15U G33C, with 0.847.
On to C15U G33A, for which the self-cleavage was found to be 0.875.
Then C15U G33U, with 1.02.
The same measure for C15G U24C: 0.818.
Turning to C15G U24G, the self-cleavage was 0.574.
The same measure for C15G U24A: 0.717.
Take C15U G31U: the self-cleavage is 0.881.
As to C15U G31A, the self-cleavage stood at 0.781.
Take C15U G31C: the self-cleavage turned out to be 0.967.
Then C15G G27A, with 0.464.
Then C15G G27U, with 0.339.
Then C15G G27C, with 0.427; and C15U G36U, with 0.521; and C15U G36A, with 0.734.
Take C15U G36C: the self-cleavage amounted to 0.356.
In the case of C15A C43G, the self-cleavage was 0.337.
Then C15A C43U, with 0.415; and C15A C43A, with 0.341.
The same measure for C15A G35C: 0.509; for C15A G35A: 0.453; for C15A G35U: 0.583.
As for C16A A34C, the self-cleavage stood at 0.799.
The same measure for C16A A34G: 1.17; for C16A A34U: 0.719.
As for C15U U28C, the self-cleavage was found to be 0.803.
Consider C15U U28A, for which the self-cleavage was found to be 0.516.
Then C15U U28G, with 0.568; and C15G U19G, with 0.382; and C15G U19A, with 0.336.
Turning to C15G U19C, the self-cleavage was found to be 0.232.
In the case of C15A G45A, the self-cleavage is 0.498.
Turning to C15A G45C, the self-cleavage came out at 0.44.
Then C15A G45U, with 0.467; and C15U A42G, with 0.265.
Regarding C15U A42U, the self-cleavage was determined as 0.329.
The same measure for C15U A42C: 0.351; for C15G A44C: 0.277.
The same measure for C15G A44G: 0.834; for C15G A44U: 0.408.
Then C15A C30A, with 0.782.
Turning to C15A C30U, the self-cleavage was 1.01.
Then C15A C30G, with 0.557; and C16A C43A, with 0.304.
As to C16A C43U, the self-cleavage was 0.438.
Then C16A C43G, with 0.294; and C15A A40U, with 0.394; and C15A A40C, with 0.361.
The same measure for C15A A40G: 0.415; for C15G G25C: 0.262; for C15G G25U: 0.315.
Consider C15G G25A, for which the self-cleavage came out at 0.348.
Then C16A A41U, with 0.37.
The same measure for C16A A41G: 0.352; for C16A A41C: 0.404; for C15A G17U: 0.374.
Take C15A G17C: the self-cleavage is 0.328.
The same measure for C15A G17A: 0.351; for C15G G39A: 0.327.
The same measure for C15G G39C: 0.275; for C15G G39U: 0.301; for C15U C20A: 0.511.
Regarding C15U C20G, the self-cleavage was found to be 0.387.
The same measure for C15U C20U: 0.627.
The same measure for C15G U32A: 0.875; for C15G U32C: 0.804; for C15G U32G: 0.574.
Then C15A A23G, with 0.428; and C15A A23U, with 0.276; and C15A A23C, with 0.307.
With C15U U21G, the self-cleavage came to 0.859.
Then C15U U21A, with 0.595.
The same measure for C15U U21C: 0.556.
Then C15A U21C, with 0.373.
On to C15A U21G, for which the self-cleavage came to 0.404.
The same measure for C15A U21A: 0.415; for C15U A37U: 0.953; for C15U A37G: 0.789.
Then C15U A37C, with 0.714; and C16A G22C, with 0.294.
The same measure for C16A G22U: 0.329.
In the case of C16A G22A, the self-cleavage stood at 0.299.
Then C15U G22A, with 0.288.
Then C15U G22C, with 0.288; and C15U G22U, with 0.386; and C16A A40C, with 0.402.
The same measure for C16A A40G: 0.297.
As for C16A A40U, the self-cleavage was determined as 0.284.
